According to the supplement of paper PMC7877785:
± gives the uncertainty stated by the source.

Assay: self-splicing fitness, log relative to wild type (ln ratio); higher = more splicing; Tetrahymena group I intron in knt gene, E. coli kanamycin selection, DiMSum; sequences stand for … in CUCUCU…GGAGGGAAAAGUUAUCAGGCAUGCACCUGGUAGCUAGUCUUUAAACCAAUAGAUUGCAUCGGUUUAAAAGGCAAGACCGUCAAAUUGCGGGAAAGGGGUCAACAGCCGUUCAGUACCAAGUCUCAGGGGAAACUUUGAGAUGGCCUUGCAAAGGGUAUGGUAAUAAGCUGACGGACAUGGUCCUAACCACGCAGCCAAGUCCUAAGUCAACAGAUCUUCUGUUGAUAUGGAUGCAGUUCACAGACUAAAUGUCGGUCGGGGAAGAUGUAUUCUUCUCAUAAGAUAUAGUCGGACCUCUCCUUAAUGGGAGCUAGCGGAUGAAGUGAUGCAACACUGGAGCCGCUGGGAACUAAUUUGUAUGCGAAAGUAUAUUGAUUAGUUUUGGAGUACUCGUGGUCG
Method in brief: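 DiMSum derived fitness as the error-weighted combination of fold changes across replicates, kanamycin versus no kanamycin, normalised to wild type. E. coli BL21(DE3) held the library, which randomised all eight P1ex-region intron nucleotides within the knt kanamycin-resistance gene on pET-22b(+). Six replicate transformations grew overnight at 37°C or 30°C on LB agar with or without 25 μg/mL kanamycin, also containing 100 μg/mL carbenicillin, 50 μM IPTG and 0.2% rhamnose, and pooled colonies were amplicon-sequenced on an Illumina HiSeq 2500.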

Row | Sequence | self-splicing fitness (ln) (30 °C) | self-splicing fitness (ln) (37 °C)
1 | CCCCAGCAAUAUUACGGCCU | -3.02 ± 0.29 | -2.82 ± 0.47
2 | CCCCAGCAAUAUUACGGCGU | -2.22 ± 0.073 | -1.81 ± 0.1
3 | CCCCAGCAAUAUUACGGGUC | -2.82 ± 0.11 | -2.43 ± 0.16
4 | CCCCAGCAAUAUUACGGUGA | -1.76 ± 0.085 | -1.77 ± 0.11
5 | CCCCAGCAAUAUUACGUAUG | -3.71 ± 0.15 | -1.96 ± 0.13
6 | CCCCAGCAAUAUUACGUCAG | -2.54 ± 0.14 | -1.36 ± 0.15
7 | CCCCAGCAAUAUUACGUCGU | -3.19 ± 0.12 | -2.05 ± 0.12
8 | CCCCAGCAAUAUUACGUUCG | -3.53 ± 0.16 | -2.79 ± 0.17
9 | CCCCAGCAAUAUUACGUUGC | -3.41 ± 0.12 | -2.78 ± 0.17
10 | CCCCAGCAAUAUUACGUUGG | -3.95 ± 0.12 | -2.83 ± 0.14
11 | CCCGAGCAAUAUUACGAAAG | -3.74 ± 0.27 | -1.7 ± 0.36
12 | CCCGAGCAAUAUUACGAAAU | -3.65 ± 0.33 | -0.929 ± 0.16
13 | CCCGAGCAAUAUUACGAAUC | -1.59 ± 0.16 | 
14 | CCCGAGCAAUAUUACGACAC | -3.41 ± 0.4 | 
15 | CCCGAGCAAUAUUACGACGU | -2.47 ± 0.15 | -0.954 ± 0.13
16 | CCCGAGCAAUAUUACGAUGG | -3.39 ± 0.16 | -1.28 ± 0.13
17 | CCCGAGCAAUAUUACGCAGU | -2.82 ± 0.16 | -2.64 ± 0.18
18 | CCCGAGCAAUAUUACGCGUA | -3.06 ± 0.21 | -2.05 ± 0.21
19 | CCCGAGCAAUAUUACGGAAC | -2.51 ± 0.31 | -2.57 ± 0.34
20 | CCCGAGCAAUAUUACGGACC | -3 ± 0.28 | 
21 | CCCGAGCAAUAUUACGGAGC | -1.75 ± 0.16 | -2.77 ± 0.36
22 | CCCGAGCAAUAUUACGGAUG | -1.67 ± 0.091 | -1.35 ± 0.13
23 | CCCGAGCAAUAUUACGGGAG | -3.25 ± 0.24 | -1.5 ± 0.19
24 | CCCGAGCAAUAUUACGGGUA | -3.44 ± 0.2 | -3.43 ± 0.23
25 | CCCGAGCAAUAUUACGUAAG | -3.63 ± 0.2 | -2.77 ± 0.18

Row | Sequence | self-splicing fitness (ln) (30 °C) | self-splicing fitness (ln) (37 °C)
26 | CCCGAGCAAUAUUACGUAGU | -3.11 ± 0.15 | -2.58 ± 0.19
27 | CCCGAGCAAUAUUACGUCGC | -2.91 ± 0.25 | -2.29 ± 0.4
28 | CCCGAGCAAUAUUACGUGUG | -3.24 ± 0.12 | -1.86 ± 0.098
29 | CCCUAGCAAUAUUACGAACU | -2.89 ± 0.18 | -3.56 ± 0.39
30 | CCCUAGCAAUAUUACGAGUG | -3.51 ± 0.16 | -2.28 ± 0.12
31 | CCCUAGCAAUAUUACGAUAG | -2.74 ± 0.2 | -2.39 ± 0.27
32 | CCCUAGCAAUAUUACGAUUC | -1.79 ± 0.35 | 
33 | CCCUAGCAAUAUUACGCAAA | -3.13 ± 0.24 | -3.49 ± 0.42
34 | CCCUAGCAAUAUUACGCACG | -3.98 ± 0.37 | -1.74 ± 0.18
35 | CCCUAGCAAUAUUACGCACU | -2.43 ± 0.15 | -2.64 ± 0.24
36 | CCCUAGCAAUAUUACGCCGA | -3.85 ± 0.33 | -2.31 ± 0.3
37 | CCCUAGCAAUAUUACGCUCA |  | -2.67 ± 0.36
38 | CCCUAGCAAUAUUACGCUCC |  | -2.13 ± 0.4
39 | CCCUAGCAAUAUUACGGCCA | -2.88 ± 0.39 | -2.19 ± 0.26
40 | CCCUAGCAAUAUUACGGGAA | -3.63 ± 0.25 | -3.08 ± 0.19
41 | CCCUAGCAAUAUUACGGUAG | -3.6 ± 0.16 | -3.5 ± 0.21
42 | CCCUAGCAAUAUUACGGUGC | -3.43 ± 0.12 | -2.88 ± 0.17
43 | CCCUAGCAAUAUUACGGUGG | -4.27 ± 0.29 | -1.93 ± 0.16
44 | CCCUAGCAAUAUUACGGUUU | -3.31 ± 0.17 | -2.87 ± 0.17
45 | CCCUAGCAAUAUUACGUACU | -2.78 ± 0.14 | -2.65 ± 0.23
46 | CCCUAGCAAUAUUACGUCAC | -2.55 ± 0.24 | -1.44 ± 0.34
47 | CCCUAGCAAUAUUACGUGGA | -1.42 ± 0.094 | -0.882 ± 0.093
48 | CCCUAGCAAUAUUACGUGGU | -4.61 ± 0.2 | -2.27 ± 0.14
49 | CCCUAGCAAUAUUACGUGUA | -3.49 ± 0.25 | -2.94 ± 0.21
